Reference: PMC5499861 (Nucleic Acids Research, 2017)
Square brackets hold non-standard residues; d marks the D form. Ends that are not written are not given here. Arg(Me2a) = CN(C)C(=N)NCCC[C@H](N)C(=O)O; Lys(Me3) = C[N+](C)(C)CCCC[C@H](N)C(=O)O

T1: SET domain of Ricinus communis ATXR5 (a.a. 158-374) (Ricinus communis, UniProt B9RU15 158-374)
T1 sequence: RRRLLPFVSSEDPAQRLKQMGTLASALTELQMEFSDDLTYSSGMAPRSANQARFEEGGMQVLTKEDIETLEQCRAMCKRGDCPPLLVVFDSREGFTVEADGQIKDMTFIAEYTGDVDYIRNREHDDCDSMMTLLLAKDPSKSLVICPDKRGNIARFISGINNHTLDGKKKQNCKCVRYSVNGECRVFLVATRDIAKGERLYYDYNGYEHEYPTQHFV


How the values were obtained:
[1] = biological target: RcATXR5 (ATXR5 SET domain) (Ricinus communis, UniProt B9RU15); type: binding
[2] = biological target: nucleosome core particle (Xenopus laevis recombinant histone octamer on 147 bp 601 DNA) (Xenopus laevis); assay: native gel or EMSA
[3] = biological target: T1, SET domain of Ricinus communis ATXR5 …; assay: crystal structure

Row | Molecule | binding result [3] | also measured
1 | Nc1ncnc2c1ncn2[C@@H]1O[C@H](C[C@@H](N)CC[C@H](N)C(=O)O)[C@@H](O)[C@H]1O [SFG, sinefungin] |  | GST pull-down, compound-dependent association with GST-PHD [1]: PHD domain of ATXR5 senses the binding of sinefungin to the SET domain
2 | full-length Glycine max ATXR5 (a.a. 1-334) (enzyme) |  | Kd [2]: 380 nM
3 | KQLATKAARKSAPATGGV[Lys(Me3)]Y [histone H3.1 peptide (a.a. 18-36) K36me3] | binds | 
4 | KQLATKAA[Rme1]KSAPATGGVKY [histone H3.1 peptide (a.a. 18-36) R26me1] | binds | 
5 | KQLATKAA[Arg(Me2a)]KSAPATGGVKY (not fully specified) [histone H3.1 peptide (a.a. 18-36) R26me2a] | binds | 
